Measurements reported in patent US20220195407, “OPTIMIZATION OF ENGINEERED MEGANUCLEASES FOR RECOGNITION SEQUENCES” (Precision BioSciences, Inc., published 2022).

Columns and labels:
Assay in all cases: cell_activity; CHO iGFFP reporter
LOX 3-4 m.201 = biological target: T1, LOX 3-4 m.201 (artificial (I-CreI derived))
T1 chain: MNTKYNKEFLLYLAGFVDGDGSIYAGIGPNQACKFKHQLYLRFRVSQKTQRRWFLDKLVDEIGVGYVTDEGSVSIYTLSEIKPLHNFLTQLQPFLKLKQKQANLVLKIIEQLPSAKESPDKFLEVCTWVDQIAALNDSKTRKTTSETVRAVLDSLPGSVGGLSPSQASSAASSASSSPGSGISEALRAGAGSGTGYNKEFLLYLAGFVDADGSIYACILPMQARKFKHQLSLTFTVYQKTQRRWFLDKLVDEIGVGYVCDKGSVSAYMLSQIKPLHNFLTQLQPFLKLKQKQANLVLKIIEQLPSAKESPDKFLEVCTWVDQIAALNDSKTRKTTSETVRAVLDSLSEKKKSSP
Source text: (§1) A CHO cell reporter system (see WO/2012/167192, FIG. 3) was used to determine whether the engineered meganucleases generated in these studies could recognize and cleave the modified LOX 3-4 recognition sequences in Table 87. To perform the assay, a pair of CHO cell reporter lines were produced, which carried a non-functional Green Fluorescent Protein (GFP) gene expression cassette integrated into the genome of the cell. The GFP gene in each cell line was interrupted by a pair of recognition sequences such that intracellular cleavage of either recognition sequence by a meganuclease would stimulate a homologous recombination event resulting in a functional GFP gene. In both cell lines, one of the recognition sequences was derived from the LOX 3-4 recognition sequence (i.e., those sequences disclosed in Table 87), and the second recognition sequence was specifically recognized by a control meganuclease called “CHO 23/24.” CHO reporter cells comprising a recognition sequence derived from the LOX 3-4 recognition sequence and the CHO 23/24 recognition sequence are referred to herein as “test cells.”
(§2) Novel engineered meganucleases derived from the LOX 3-4x.109 meganuclease were prepared by making amino acid substitutions at one or more positions in the first subunit. These engineered meganucleases were then evaluated for cleavage of the LOX 3-4 recognition sequence modified to have a GTGG center sequence (SEQ ID NO: 496) in the CHO reporter assay according to Example 1. Novel meganucleases which were modified to comprise the residues recited in the tables below were capable of cleaving the LOX 3-4 recognition sequence having a GTGG four base pair center sequence.

LOX 3-4 m.192 = biological target: T2, LOX 3-4 m.192 (artificial (I-CreI derived))
T2 chain: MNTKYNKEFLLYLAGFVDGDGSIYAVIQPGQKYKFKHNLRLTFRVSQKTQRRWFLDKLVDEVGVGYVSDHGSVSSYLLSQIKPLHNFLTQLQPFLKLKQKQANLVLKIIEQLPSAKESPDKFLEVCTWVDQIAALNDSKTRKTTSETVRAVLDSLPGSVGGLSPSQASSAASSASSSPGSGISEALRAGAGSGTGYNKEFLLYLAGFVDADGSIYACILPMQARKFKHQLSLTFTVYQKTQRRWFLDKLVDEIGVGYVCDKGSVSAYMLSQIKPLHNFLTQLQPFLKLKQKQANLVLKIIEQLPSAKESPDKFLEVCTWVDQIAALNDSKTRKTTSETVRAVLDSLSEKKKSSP
Source text: as §1, §2

LOX 3-4 m.203 = biological target: T3, LOX 3-4 m.203 (artificial (I-CreI derived))
T3 chain: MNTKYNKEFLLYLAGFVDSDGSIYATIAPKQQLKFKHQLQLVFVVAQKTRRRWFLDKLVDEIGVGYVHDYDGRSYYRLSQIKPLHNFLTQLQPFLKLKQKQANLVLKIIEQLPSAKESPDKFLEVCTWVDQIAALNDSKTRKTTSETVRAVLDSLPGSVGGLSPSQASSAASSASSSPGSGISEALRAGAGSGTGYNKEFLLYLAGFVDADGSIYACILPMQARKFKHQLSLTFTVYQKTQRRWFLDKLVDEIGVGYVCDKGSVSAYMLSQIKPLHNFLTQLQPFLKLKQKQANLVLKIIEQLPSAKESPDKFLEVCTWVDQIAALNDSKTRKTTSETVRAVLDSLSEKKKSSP
Source text: as §1, §2

LOX 3-4 m.180 = biological target: T4, LOX 3-4 m.180 (artificial (I-CreI derived))
T4 chain: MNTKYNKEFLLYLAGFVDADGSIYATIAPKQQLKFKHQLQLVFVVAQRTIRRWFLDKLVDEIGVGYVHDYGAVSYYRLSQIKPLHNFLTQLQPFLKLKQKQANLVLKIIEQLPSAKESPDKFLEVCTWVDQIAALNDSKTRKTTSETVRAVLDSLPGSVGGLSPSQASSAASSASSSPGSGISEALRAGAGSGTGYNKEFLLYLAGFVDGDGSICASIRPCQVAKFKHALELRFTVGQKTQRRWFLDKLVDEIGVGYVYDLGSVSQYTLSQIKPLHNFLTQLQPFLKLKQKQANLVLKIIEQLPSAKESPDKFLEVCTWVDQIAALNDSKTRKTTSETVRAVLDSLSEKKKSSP
Source text: as §1
as §2, with “GTGC” for “GTGG”, “463)” for “496)”

LOX 3-4 m.181 = biological target: T5, LOX 3-4 m.181 (artificial (I-CreI derived))
T5 chain: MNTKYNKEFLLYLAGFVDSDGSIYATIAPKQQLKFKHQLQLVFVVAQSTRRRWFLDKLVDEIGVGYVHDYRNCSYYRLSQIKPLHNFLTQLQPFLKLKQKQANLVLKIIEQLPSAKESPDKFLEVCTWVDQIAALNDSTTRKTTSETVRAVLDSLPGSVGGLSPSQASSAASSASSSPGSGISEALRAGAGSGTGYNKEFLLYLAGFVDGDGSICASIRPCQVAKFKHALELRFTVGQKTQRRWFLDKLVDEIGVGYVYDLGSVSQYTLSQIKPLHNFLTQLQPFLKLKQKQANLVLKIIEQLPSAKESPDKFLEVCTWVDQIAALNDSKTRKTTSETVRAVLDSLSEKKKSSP
Source text: as §1
as §2, with “GTGC” for “GTGG”, “463)” for “496)”

LOX 3-4 m.186 = biological target: T6, LOX 3-4 m.186 (artificial (I-CreI derived))
T6 chain: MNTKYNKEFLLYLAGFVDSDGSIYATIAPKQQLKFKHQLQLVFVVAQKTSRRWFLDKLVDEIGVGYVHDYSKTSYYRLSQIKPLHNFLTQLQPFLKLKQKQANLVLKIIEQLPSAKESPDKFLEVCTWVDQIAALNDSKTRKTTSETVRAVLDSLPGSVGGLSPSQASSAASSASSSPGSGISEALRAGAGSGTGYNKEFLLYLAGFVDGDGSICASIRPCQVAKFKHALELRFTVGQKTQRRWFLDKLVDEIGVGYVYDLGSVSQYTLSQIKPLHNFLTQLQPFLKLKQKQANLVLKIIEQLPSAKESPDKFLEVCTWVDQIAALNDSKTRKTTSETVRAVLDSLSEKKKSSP
Source text: as §1
as §2, with “GTGC” for “GTGG”, “463)” for “496)”

LOX 3-4m.775 = biological target: T7, LOX 3-4m.775 (artificial (I-CreI derived))
T7 chain: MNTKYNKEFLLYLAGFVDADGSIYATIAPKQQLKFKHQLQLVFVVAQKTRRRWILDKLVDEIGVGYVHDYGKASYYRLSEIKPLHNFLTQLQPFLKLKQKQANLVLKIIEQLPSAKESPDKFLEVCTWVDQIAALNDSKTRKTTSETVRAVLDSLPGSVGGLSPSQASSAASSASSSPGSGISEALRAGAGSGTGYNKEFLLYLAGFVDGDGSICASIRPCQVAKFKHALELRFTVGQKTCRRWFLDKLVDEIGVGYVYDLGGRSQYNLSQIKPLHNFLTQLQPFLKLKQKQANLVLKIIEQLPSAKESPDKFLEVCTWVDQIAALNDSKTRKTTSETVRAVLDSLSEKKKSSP
Source text: as §1
(§3) Novel engineered meganucleases derived from the LOX 3-4x.109 meganuclease were prepared by making amino acid substitutions at one or more positions in the first subunit and one or more positions in the second subunit. In addition, two engineered meganucleases were generated that inserted an additional R residue following position 264, which corresponds to position 73 of wild-type I-CreI. These engineered meganucleases were then evaluated for cleavage of the LOX 3-4 recognition sequence modified to have an ACAG center sequence (SEQ ID NO: 34) in the CHO reporter assay according to Example 1.

LOX 3-4m.788 = biological target: T8, LOX 3-4m.788 (artificial (I-CreI derived))
T8 chain: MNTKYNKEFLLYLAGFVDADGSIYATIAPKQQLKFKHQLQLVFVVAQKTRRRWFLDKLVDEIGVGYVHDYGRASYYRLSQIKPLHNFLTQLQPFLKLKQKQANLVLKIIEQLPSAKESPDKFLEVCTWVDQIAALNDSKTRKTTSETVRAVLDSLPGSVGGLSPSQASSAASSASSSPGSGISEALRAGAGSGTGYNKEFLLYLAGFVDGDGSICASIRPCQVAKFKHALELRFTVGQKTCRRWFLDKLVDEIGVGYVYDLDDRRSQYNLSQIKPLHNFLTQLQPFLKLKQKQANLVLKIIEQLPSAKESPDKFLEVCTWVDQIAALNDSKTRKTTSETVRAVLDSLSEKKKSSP
Source text: as §1, §3

LOX 3-4m.776 = biological target: T9, LOX 3-4m.776 (artificial (I-CreI derived))
T9 chain: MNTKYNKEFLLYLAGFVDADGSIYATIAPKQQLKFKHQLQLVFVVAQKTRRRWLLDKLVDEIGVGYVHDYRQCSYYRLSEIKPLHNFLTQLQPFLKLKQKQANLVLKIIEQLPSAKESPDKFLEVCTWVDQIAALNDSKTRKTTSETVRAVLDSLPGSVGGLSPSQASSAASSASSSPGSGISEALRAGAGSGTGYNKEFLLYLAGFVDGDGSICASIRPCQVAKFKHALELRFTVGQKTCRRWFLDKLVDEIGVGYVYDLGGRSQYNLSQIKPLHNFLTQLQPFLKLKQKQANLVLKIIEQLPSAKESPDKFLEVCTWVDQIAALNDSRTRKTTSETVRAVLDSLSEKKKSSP
Source text: as §1, §3

LOX 3-4m.856 = biological target: T10, LOX 3-4m.856 (artificial (I-CreI derived))
T10 chain: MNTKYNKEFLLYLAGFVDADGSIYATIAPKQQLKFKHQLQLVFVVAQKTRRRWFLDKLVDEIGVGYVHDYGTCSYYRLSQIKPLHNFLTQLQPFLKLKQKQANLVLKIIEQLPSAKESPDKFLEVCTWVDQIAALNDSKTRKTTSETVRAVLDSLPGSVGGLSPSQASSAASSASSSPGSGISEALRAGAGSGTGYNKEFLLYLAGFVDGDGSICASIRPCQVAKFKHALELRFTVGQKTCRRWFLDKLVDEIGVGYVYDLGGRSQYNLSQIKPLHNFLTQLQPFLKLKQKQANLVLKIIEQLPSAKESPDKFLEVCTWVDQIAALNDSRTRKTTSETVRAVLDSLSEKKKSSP
Source text: as §1, §3

B1: LOX 3-4 GTGG (dsDNA)
DNA 1: GTATAGCATGTGGTATACGAAG
DNA 2: CTTCGTATACCACATGCTATAC
Question: B1 was tested. Which activity (LOX 3-4 m.201) did it give?
Answer: The activity was 11 % GFP.

Question: What about the activity (LOX 3-4 m.192) of the same binder?
Answer: Its activity is 11.9 % GFP.

Question: And the activity (LOX 3-4 m.203)?
Answer: Its activity is 12.1 % GFP.

B2: LOX 3-4 GTGC (dsDNA)
DNA 1: GTATAGCATGTGCTATACGAAG
DNA 2: CTTCGTATAGCACATGCTATAC
Question: Which results are given for B2?
Answer: activity (LOX 3-4 m.180): 13.7 % GFP; activity (LOX 3-4 m.181): 13.8 % GFP; activity (LOX 3-4 m.186): 13.4 % GFP

B3: LOX 3-4 ACAG (dsDNA)
DNA 1: GTATAGCATACAGTATACGAAG
DNA 2: CTTCGTATACTGTATGCTATAC
Question: What does the source list for B3?
Answer: activity (LOX 3-4m.775): 12.2 % GFP; activity (LOX 3-4m.788): 10.5 % GFP; activity (LOX 3-4m.776): 10.4 % GFP; activity (LOX 3-4m.856): 10.8 % GFP
